# Experimental data reported in article PMC4726241, “Crystal structure and SUMO binding of Slx1-Slx4 complex” (Scientific Reports, 2016).
# T1: Slx1^RING+CT-Slx4^CCD complex (S. pombe, UniProt Q9P7M3 176-271; Q9P6M0 352-419)
# T1 construct: Slx4, Schizosaccharomyces pombe, C-terminal conserved domain, residues 352-419; source: E. coli, co-expressed, purified by a procedure similar to that of Slx1^RING-Slx4^CCD; not shown: His6, N-terminal, cleaved
# T1 sequence (looked up) 1: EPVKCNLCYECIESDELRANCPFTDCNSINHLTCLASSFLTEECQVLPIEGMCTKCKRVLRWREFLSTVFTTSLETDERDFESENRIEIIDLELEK
# T1 sequence (looked up) 2: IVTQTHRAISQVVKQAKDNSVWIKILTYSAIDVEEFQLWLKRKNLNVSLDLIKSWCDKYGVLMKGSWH
# Molecular target: T1, Slx1^RING+CT-Slx4^CCD complex
# Assay: ITC; 2.37 mM Pmt3 injected into 120 μM complex in the cell; 25 °C; 20 mM sodium phosphate pH 6.8, 100 mM NaCl; three repeats
# Conditions: both partners purified
binder,measurement,value
"mature Pmt3 (S. pombe SUMO), residues 1-111 (natural protein, UniProt O13351 1-111, looked up, Pmt3 (SUMO), Schizosaccharomyces pombe, mature form, residues 1-111; Uniformly 15N-labelled for the NMR titrations; source: E. coli, purified by a procedure similar to that of the complex) MSESPSANISDADKSAITPTTGDTSQQDVKPSTEHINLKVVGQDNNEVFFKIKKTTEFSKLMKIYCARQGKSMNSLRFLVDGERIRPDQTPAELDMEDGDQIEAVLEQLGG",Kd,78.3 ± 9.9 µM
